This passage reports percent of the pool in association, normalised to 100% efficiency results from paper PMC2199935.

Assay [1] concerns the target beta-catenin (canine (endogenous in MDCK)) (UniProt B6V8E6). Kind of assay: co-IP.
Assay [2] concerns the target p120/p100 (anti-p120 immunoreactive material), canine (canine (endogenous in MDCK)). Nature of the assay: co-IP.

The molecule “p120/p100 (anti-p120 immunoreactive material), canine (natural protein)” gave a percent of the pool in association, normalised to 100% efficiency in assay [1] of 21%.

B1: beta-catenin (natural protein)
chain: MATQADLMELDMAMEPDRKAAVSHWQQQSYLDSGIHSGATTTAPSLSGKGNPEEEDVDTTQVLYEWEQGFSQSFTQEQVADIDGQYAMTRAQRVRAAMFPETLDEGMQIPSTQFDAAHPTNVQRLAEPSQMLKHAVVNLINYQDDAELATRAIPELTKLLNDEDQVVVNKAAVMVHQLSKKEASRHAIMRSPQMVSAIVRTMQNTNDVETARCTAGTLHNLSHHREGLLAIFKSGGIPALVKMLGSPVDSVLFYAITTLHNLLLHQEGAKMAVRLAGGLQKMVALLNKTNVKFLAITTDCLQILAYGNQESKLIILASGGPQALVNIMRTYTYEKLLWTTSRVLKVLSVCSSNKPAIVEAGGMQALGLHLTDPSQRLVQNCLWTLRNLSDAATKQEGMEGLLGTLVQLLGSDDINVVTCAAGILSNLTCNNYKNKMMVCQVGGIEALVRTVLRAGDREDITEPAICALRHLTSRHQEAEMAQNAVRLHYGLPVVVKLLHPPSHWPLIKATVGLIRNLALCPANHAPLREQGAIPRLVQLLVRAHQDTQRRTSMGGTQQQFVEGVRMEEIVEGCTGALHILARDVHNRIVIRGLNTIPLFVQLLYSPIENIQRVAAGVLCELAQDKEAAEAIEAEGATAPLTELLHSRNEGVATYAAAVLFRMSEDKPQDYKKRLSVELTSSLFRTEPMAWNETADLGLDIGAQGEPLGYRQDDPSYRSFHSGGYGQDALGMDPMMEHEMGGHHPGADYPVDGLPDLGHAQDLMDGLPPGDSNQLAWFDTDL
As for B1, the percent of the pool in association, normalised to 100% efficiency in assay [2] is 24%.
